Test results taken from publication PMC7949122 (The Journal of Biological Chemistry, 2021).
Non-standard residues stand in square brackets, D forms with d. Residues, ends and D or L forms follow the SMILES beside them. No end group written: not given here. Hyp = O=C(O)[C@@H]1C[C@@H](O)CN1; 2Thi = N[C@@H](Cc1cccs1)C(=O)O; NChg = not defined here

T1: mutant human B2R(Ø) lacking AltB2R expression (Homo sapiens, UniProt P30411)
T1 construct: expressed in transfected cells; host or cells: HEK293A
T1 sequence (P30411 1-391): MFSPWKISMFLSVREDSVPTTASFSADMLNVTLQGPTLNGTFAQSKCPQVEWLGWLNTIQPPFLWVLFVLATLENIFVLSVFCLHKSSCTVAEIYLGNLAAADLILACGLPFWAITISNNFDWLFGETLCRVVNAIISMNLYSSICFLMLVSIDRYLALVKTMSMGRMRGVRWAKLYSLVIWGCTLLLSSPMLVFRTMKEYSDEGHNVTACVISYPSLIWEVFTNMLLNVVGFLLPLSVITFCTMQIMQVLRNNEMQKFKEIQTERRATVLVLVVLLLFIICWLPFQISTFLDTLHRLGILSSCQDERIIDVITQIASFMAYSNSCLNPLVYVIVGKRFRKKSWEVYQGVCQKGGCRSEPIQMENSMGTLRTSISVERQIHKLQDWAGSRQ

T2: human B2R on transfected HEK293A cells (human, UniProt P30411 1-391)
T2 chain: T1 sequence (P30411 1-391)


Columns and labels:
[1] = target: T1, mutant human B2R(Ø) lacking AltB2R expression; assay: Inositol phosphate (IP1) production, IP-One Gq assay (FRET), B2R(Ø)-transfected HEK293A cells (lacking AltB2R); format: cell-based; conditions: HEK293-A; Emax in B2R(Ø) versus B2R cells; read-out: reduction of efficacy (Emax) for IP1 formation in cells without AltB2R expression
Description: This construct is a monocistronic version of B2R with the mutation C168T. In this mutant, a premature stop codon is introduced in the AltB2R coding sequence (Q11stop) in a manner synonymous for B2R (L56 L). Thus, the B2R encodes B2R and AltB2R, whereas mutant B2R^(Ø) encodes only B2R.
To consolidate the western blot data, AlphaLISA assays were also conducted in parallel in the same cell lines for the quantitative analyses of B2R-stimulated ERK1/2 phosphorylation (Fig. 5, B and C).
Quantitative densitometry analysis of pERK1/2 levels over time (top right). pERK/total ERK ratios were calculated for each time point.
HeLa, HEK293T, and HEK293A cells were maintained in Dulbecco's modified Eagle's medium (DMEM) containing 10% fetal bovine serum (FBS) (Wisent, #080-450) and 1% antibiotic-antimycotic (Wisent, #450-115-EL) under standard conditions. HEK293A cells were transiently transfected with the pcDNA3.1-vector containing the cDNA of human B2R or B2R^(Ø), using polyethylenimine (PEI) or JetPrime (Polyplus). HeLa cells were transiently transfected with B2R and AltB2R constructs using GeneCellin (Bulldog Bio Inc) or JetPrime (Polyplus) transfection reagent, as per the manufacturer’s instructions, and incubated 24 h at 37 °C, unless otherwise stated.
Inositol monophosphate (IP1) production was determined using the IP-One Gq assay kits (Cisbio, #62IPAPEB), according to the manufacturer's instructions. Fluorescence resonance energy transfer (FRET) signals were measured with a Tecan M1000 plate reader.

[2] = target: T1, mutant human B2R(Ø) lacking AltB2R expression; assay: Competitive displacement of [3H]-BK binding, living B2R(Ø)-transfected HEK293A cells; conditions: n = 3
Description: Black and gray, negative controls with secondary antibodies only; blue, ^FlagB2R transfected cells; red, ^FlagB2R^(Ø) transfected cells. […] Reported Kd are expressed in nM. Bmax is expressed in fmol/10^6 cells.
Radioligand competition binding assay was performed using adherent living HEK293A cells transiently transfected with B2R or B2R^(Ø), as we previously described ([54]). […] Saturation binding assays were performed using adherent living HEK293A cells transiently transfected with B2R or B2R^(Ø). […] After the incubation time, cells were washed twice with ice-cold PBS, lysed with 200 μl of 0.1 N sodium hydroxide, and transferred into scintillation vials containing 4 ml scintillation liquid. The radioactivity was measured with a β-counter and data were analyzed using GraphPad 6.01 (GraphPad Software, Inc).

B1R = system: B1R; set-up: method as in PMID 15734727; conditions: cited from earlier work
[3] = target: T2, human B2R on transfected HEK293A cells; assay: B2R; displacement of [3H]-BK
[4] = target: T2, human B2R on transfected HEK293A cells; assay: B2R(Ø); displacement of [3H]-BK

Row | IC50 [3] [nM] | IC50 [4] [nM] | Molecule | further results
1 | – | – | COc1ccc(C[C@@H](CN[C@@H](CCCNC(=N)N)C(=O)O)NC(=O)[C@@H]2CCCN2C(=O)[C@H](CO)NC(=O)[C@H](Cc2cccs2)NC(=O)CNC(=O)[C@@H]2C[C@@H](O)CN2C(=O)[C@@H]2CCCN2C(=O)[C@@H](N)CCCNC(=N)N)cc1 [RMP-7, [Hyp^3,Thi^5,(4-Me)Tyr^8(ΨCH2NH)Arg^9]-BK] (HELM PEPTIDE1{R.P.[Hyp].G.[O=C([C@H](Cc1cccs1)N[*:1])[*:2]].S.P.[COc1ccc(C[C@@H](CN[C@@H](CCCNC(=N)N)C(=O)O)N[*:1])cc1]}$$$$V2.0) | Emax [1]: 16%
2 | – | – | RPPGFSPFR [BK, H-Arg^1-Pro^2-Pro^3-Gly^4-Phe^5-Ser^6-Pro^7-Phe^8-Arg^9-OH] | binding affinity, B2R versus B2R(Ø) [2]: same affinities
3 | – | – | desArg^9-BK: carboxy-terminally truncated peptide metabolite (RPPGFSPF; Bradykinin; UniProt P01042 381-388, looked up, fragment) | kinin receptor selectivity (B1R): selectively bind to the other type of kinin receptor, the inducible B1R
4 | 17.7 | 18 | RP[Hyp]G[2Thi]SP[Tyr(4-Me)]R (also: ΨCH2NH reduced bond between residues 8 and 9) [RMP-7 ([Hyp^3,Thi^5,(4-Me)Tyr^8(ΨCH2NH)Arg^9]-BK)] | –
5 | 6.21 | 4.38 | RP[Hyp]G[2Thi]S[NChg][2Thi]R (reading uncertain; also: printed as [Hyp^3,Thi^5,^NChg^7,Thi^8]-BK) [NG291 ([Hyp^3,Thi^5,^NChg^7,Thi^8]-BK)] | –
